# Source: article PMC3618430 (PLoS ONE, 2013)
# Residue numbers refer to the chain shown, from its start.
# B1: A3 Fab displayed on phage (Fab, V domains shown)
# VH: QVTLKESGPGILKPSQTLSLTCSFSGFSLSTSGMGVGWIRQSSGKGLEWLANIWWDDDKYYNPSLKSQLTISKDTSRNQVFLKITSVDTADTATYYCARRGEYDAMDYWGQGTSVTVSS
# VL: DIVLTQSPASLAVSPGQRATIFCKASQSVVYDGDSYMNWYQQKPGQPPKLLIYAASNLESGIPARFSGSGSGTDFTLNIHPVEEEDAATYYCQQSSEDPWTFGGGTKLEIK
# notes: also called clone A3; Fab-phage A3; source: E. coli TG-1 with helper phage KM13, phage PEG-precipitated
# B2: D8 Fab displayed on phage (Fab, V domains shown)
# VH: B1 VH with S32P, S42P, A90T, E102N
# VL: DIVLTQSPASLAMSLGQRATISCKASQSVVYDGDSYMNWYQQKPGQPPKLLIYAASNLESGIPARFSGSGSGTDFTLNIHPVEEEDAATYYCQQSSEDPWTFGGGTKLEIK
# notes: also called clone D8; Fab-phage D8; source: E. coli TG-1 with helper phage KM13, phage PEG-precipitated
# B3: D4 Fab displayed on phage (Fab, V domains shown)
# VH: B1 VH with S30N, S42P, Q68H, R77G, T92S, E102D, A105S, M106L
# VL: B2 VL with A9G, A12S, M13V, V30D
# notes: also called clone D4; Fab-phage D4; source: E. coli TG-1 with helper phage KM13, phage PEG-precipitated
# B4: A4 Fab displayed on phage (Fab, V domains shown)
# VH: B1 VH with S42P, E102K, A105S
# VL: B2 VL
# notes: also called clone A4; Fab-phage A4; source: E. coli TG-1 with helper phage KM13, phage PEG-precipitated
# Target: recombinant A/Turkey/1/2005 (H5N1) HA (Influenza A virus …, UniProt Q207Z6, strain)
# Experiment: ELISA
# Conditions: one partner purified
row,Binder,binding result
1,B1,binds
2,B2,binds
3,B3,binds
4,B4,binds

# Target: recombinant A/Netherlands/219/03 (H7N7) HA (Influenza A virus …, UniProt Q6VMK1, strain)
# Experiment: ELISA
# Conditions: one partner purified
row,Binder,binding result
1,B1,no binding
2,B2,no binding
3,B3,no binding
4,B4,no binding

# Target: T1, bovine serum albumin (Bos taurus, UniProt P02769)
# T1 construct: also called BSA
# T1 sequence (P02769 25-607): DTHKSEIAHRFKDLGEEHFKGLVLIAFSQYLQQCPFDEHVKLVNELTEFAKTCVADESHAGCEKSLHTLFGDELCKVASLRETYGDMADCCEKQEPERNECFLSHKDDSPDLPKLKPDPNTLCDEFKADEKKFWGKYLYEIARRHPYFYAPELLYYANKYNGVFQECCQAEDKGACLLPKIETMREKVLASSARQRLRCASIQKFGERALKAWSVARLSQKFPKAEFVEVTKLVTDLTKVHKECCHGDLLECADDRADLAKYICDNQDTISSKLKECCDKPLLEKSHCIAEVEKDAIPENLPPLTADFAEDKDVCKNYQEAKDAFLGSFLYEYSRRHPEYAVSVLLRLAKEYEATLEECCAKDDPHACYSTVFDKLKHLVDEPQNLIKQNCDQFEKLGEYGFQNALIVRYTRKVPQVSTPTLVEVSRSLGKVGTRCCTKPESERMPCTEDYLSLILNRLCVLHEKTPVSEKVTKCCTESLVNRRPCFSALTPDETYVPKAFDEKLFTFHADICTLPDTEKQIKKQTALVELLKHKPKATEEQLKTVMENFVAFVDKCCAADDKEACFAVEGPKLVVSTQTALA
# Experiment: ELISA
# Conditions: one partner purified
row,Binder,binding result
1,B1,no binding
2,B2,no binding
3,B3,no binding
4,B4,no binding

# Target: recombinant A/Anhui/1/05 (H5N1) HA (Influenza A virus A/Anhui/1/2005 (H5N1), UniProt Q1WDM0, strain)
# Experiment: ELISA
# Conditions: one partner purified
row,Binder,binding result
1,B1,binds
2,B2,binds
3,B3,binds
4,B4,binds

# Target: T2, recombinant A/California/04/2009 H1N1 HA (Influenza A virus A/California/04/2009 …, UniProt C3W5S1, strain)
# T2 construct: source: bought: Sino Biological Inc
# Experiment: ELISA
# Conditions: one partner purified
row,Binder,binding result
1,B1,no binding
2,B2,no binding
3,B3,no binding
4,B4,no binding
